The text below walks through data of the nanobody polyreactivity screen of Harvey et al. (2022).

The nature of the data set: yeast display, Sf9 membrane polyspecificity reagent, FACS + sequencing; frameworks hold sequencing errors. An outline of the steps:
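In a synthetic yeast display library (Saccharomyces cerevisiae BJ5465), nanobody expression was induced with galactose for 36–48 hours. FACS gates were set low and high (top ~1%) using anti-HA fluorescence for expression and streptavidin fluorescence for binding of the Sf9 membrane reagent. Each polyreactivity label is drawn from the gate of origin.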
Regarding “QVHLVESGGGLVQEGGSLRISCAASGSSFSHYTMGWYIQAPGKERELVAAISYRGGSTYYADSLKGRFTISRDNAKNTVYFQSNSLKPEDTAVYYCAAVGYYSTVRRYDYWGQRTQVTVSS”, the “polyreactivity (PSR sort gate)” value was “low polyreactivity”.
Take “QVQLVESGGGLVQAGGSLRLSCAASGSIFESYAMGWYRQAPGKERELVAAITKRGGSTYYADSVKGRFTISRDNAKNTVYLQMNSLKPEDTAVYYCNARWPGIGPIYDYWGQGTQVTVSS”: the “polyreactivity (PSR sort gate)” value is “low polyreactivity”.
To “QVQLVESGGGIVQAGGSLRLSCAASGSIFRRYATGWYRQAPGKERELVAAISSGGSTYADSVKGRFTISRDNAKNTVYLQMNSLKPEDTAVYYCAVDWAQEDGYWGQGTQVTVSS” belongs “low polyreactivity”; to “QVQLVESGGGLVQAGGSLRLSCAASGIIFGTYAMGWYRQAPGKERELVAAINWSGGSTYYADSVKGRFTISRDNAKNTVYLQMNSLKPEDTAVYYCAADGNEYDYWGQGTQVSVSS”, “low polyreactivity”.
As to “QVQLVESGGGLVQAGGSLRLSCAASGSTITVNDMGWYRQAPGKERELVAAITQRDGRTFYADSVKGRFTISRDNAKNTVYLQMNSLKPVDTSVYYFAADYVWYTYGDYDYWGLGTQVTVSS”, the “polyreactivity (PSR sort gate)” value is on record as “low polyreactivity”.
Then “QVQLVESGGGLVQAGGSLRLSCAASGSTFYKYAMGWYRQAPGKERELVAAISRGGSTYYADSVKGRFTISRDNAKNTVYLQMNSLKPEDTAVYYCAAETVSYYSKYDYWGQGTQVTVSS”, with “low polyreactivity”; and “QVQLVESGGGLVQAGGSLRLSCAASGRTFNLYAMGWYRQAPGKEREFVAAISYSGDSTYYADSVKGRFTISRDNAKNTVYLQMNSLKPEDTAVYYCNADRLQVTRTYDYWGQGTQVTVSS”, with “low polyreactivity”.
Then “QVQLVESGGGLVQAGGSLRLSCAASGFIFYHYAMGWYRQAPGKERELVAAISRRTGSTYYADSVKGRFTISRDNAKNTDYLQMNSLKPEDTSVYYCAADAYFIYSRYWYDYWGQGTQVTVSS”, with “high polyreactivity”; and “QVQLVESGGGLVQAGGSLRLSCAASGSTFWYYAMGWYRQAPGKERELVASITYSGGSTYYADSVKGRFTISRDNAKNTVYLQMNSLKPEDTAVYYCAAEGYYSNYHFWGQGTQVTVSS”, with “low polyreactivity”.
Then “QVQLVESGGGLVQAGGSLRLSCAASGLIFKNNAMGWYRQAPGKERELVAAIDSIGGSTYYADSVKGRFTISRDNAKNTVYLQMNSLKPEDTAVYYCATDYYFYPHSQYDYWGQGTQVTVSS”, with “low polyreactivity”.
Take “QVQLVESGGGLVQAGGSLRLSCAASGSIFRRYTMGWYRQAPGKERELVAAISRVGNTNYADSVKGRFTISRDNAKNTVYLQMNSLKPEDTAVYYCAADLYWLLYDEDWYWWEYESDSWGQGTQVTVSS”: the “polyreactivity (PSR sort gate)” value is “high polyreactivity”.
Then “QVQLVESGGGLVQAGGSLRLSCAASGIIFSDYAMGWYRQAPGKERELVAAISSNAGTTSYADSVKGRFTISRDNAKNTVYLQMNSLKPEDTAVYYCNADSSYPPGYDYCGQGTQVTVSS”, with “low polyreactivity”; and “QVHLVESGGGLVQAGGSLRLSCAASGFTFLTNAMGWYRQAPGKERELVAAISQSGGRTYYADSVKGRFTISRDNAKNTVYLQMNSLKPEDTAVYYCAAGVRSTGRMDYWGQGTQVTVSS”, with “high polyreactivity”; and “QVQHVESGGGLVQAGGSLRLSCAASGSLFYGNTMGWARQAPGKERELVAAISNDDSRTYYADSVKGRFTISRDNAKNTVYLQMNSLKPEDTAVYYSATRGYPYRYRQTLNYWGQGTQVTVSS”, with “high polyreactivity”.
As for “EVQLVESRGGLVQAGGSLRLSSADSGLTFPYNTMGWYRQAPGTERELVAAITARGGRTYYADSVKGRFTISRDNAKNTVYLQMNSLKPEDTAVYYCNADRTRGYQRYDYWGQGTQVTVSS”, the “polyreactivity (PSR sort gate)” value is given as “high polyreactivity”.
On to “QVQVVESGGGLVQAGGSLRLSCAASGSNFQRYTMGLYRQAPGKDRELVAAITGRGGSTYYADSVKGRFTISRDNAKNTVYLEMNSLKPEDTAVYYCAAGAFRRYKSDYYYWGQGTQVTVSS”, for which the “polyreactivity (PSR sort gate)” value is listed as “low polyreactivity”.
As for “QVQLVESGGGLVQAGGSLRLSCAASGSTIRGYARGWYRQAPGKEREFVAAITVNGGNTYYAESVKGRFTLSRDNAKNTVYLQMNSLKPEDTEGYYCNVPVTVVKASITEHYYWGQGTQVTVSS”, the “polyreactivity (PSR sort gate)” value was “low polyreactivity”.
To “QVQLVESGGGIVQAGGSLRLSCAASGRIFRSYTMGWYRQAPGKERELVAAISWTGGRTYYADSVKGRFTISRDNAKNTVYLQMNSLKPEDTAVYYCAATNRYYIYDYWGQGTQVTVSS” belongs “high polyreactivity”.
“QVQLVESGGGLVQAGGSLRLSCAASGSIFGRYAMGWYRQAPGKESELVAAISANGGSTYYADSVKGRFTISRDNAKNTVYLQMNSLKPEDTAVYYCAAGSTRGYKLGYWGQGTQVTVSS”: the “polyreactivity (PSR sort gate)” value is “high polyreactivity”.
To “QVQLVESGGGLVQAGGSLRLSCAASGSIFGVYTLGWYRQAPGKERELVAAISGSGGSTSYADSVKGRFTISRDNAKNTVYLQMTSLKPEDTAGYYCATRFPNIPPYDSLGQGTQVTVSS” belongs “low polyreactivity”; to “QVQLVESGGGLVQAGGSLRLSCAPSGSTYSRYAMGWYRQAPGKERELVAAISRSGGTTNYADSVKWRFTISRDNAKNTVYLQMNSLKPEDTAVYYCAAYLPFRQGRYGYEYWGQGTQVTVSS”, “high polyreactivity”; to “QVQLVESGGGLVQAGGSLRLSCAASGYIFSGYAMGWYRQAPGKERELVAAISSNGGSTYYADSVKGRFTISRDNAKNTVYLQMISLKPEDTAVYYCNRGLAARVGRGDYWGQGTQVTVSS”, “low polyreactivity”.
As for “QVQLVESGGGLVQAGGSLRLSCAASGRNFYRNAMGWSRQAPGKERELVAAITGSGGITYYADSVKGRFTISRDNAKYTVYLQMNRLKPEDTGVYYCNARYYSHRYDYWGQGTQVTVSS”, the “polyreactivity (PSR sort gate)” value is “high polyreactivity”.
With “QVQLVESGGGLVQAGGSLRLSCAASGSIFTFYDMGWYRQAPGKERELVAAISSGGSTTYADSVKGRFTISRDNAKNTVYLQMNSLKPEDTAVYYCAADSQPYLYPVEYDYWGQGTQVTVSS”, the “polyreactivity (PSR sort gate)” value is reported as “low polyreactivity”.
On to “QVQLVESGGGLVQAGGSLRLSCAASGRIIVHYAMGWYRQAPGKERELVAAISWSGGSTYYADSVKGRFTISRDIGNNTVYLQMNSLKPEDTAVYYCNALDPLYFRYDYWGQGTQVTVSS”, for which the “polyreactivity (PSR sort gate)” value is on record as “low polyreactivity”.
To “QVQLVESGGGLVQAGGSLRLSCAASGSTFKPNAMGWYRQAPGKERELVAAITSGSTYYADSVKGRFTISRDNAKNSVYLQMNSLIPEDSAVYYCATSFRGKSPYRNSGSYYFWGQGTQVTVSS” belongs “high polyreactivity”; to “QVQLVESGGGLVQAGGSLRLSCAASVITFIDYARGWYRQAPGKERELVAAINSSGGGTYYADSVKGRFTISRDNAKNTVYLQMNSLKPEDTAVYYCAADFWYWGQIDSSDYWGQGTQVTVSS”, “low polyreactivity”; to “QVQLVESGGGLVQAGGSLRLSCAASGFNFASYAMGWYRQAPGKERELVAAISWRGGSTYYADSVKGRFTISRDNAKNTVYLQMNSLKPEDTAVYYCNAYVYVGTGRGYDTLDYWGQGTQVTLSS”, “low polyreactivity”.
Then “QVQLVESGGGLVQAGGSLRLSCAASGSIFSNNAMGLYRQAPGKVSELVASITFSGGNTYYADSVKGRFTISRDNAKNTVYLQMNSLKPEDTAVYYCNADRYPVGTAREYDSWGQGTQVTVSS”, with “low polyreactivity”.
Then “QVQLVESGGGLFHAGGSLRLSCAAYGSTFPYYTMGWYRQAPGKERELVAAITTRGGGTYYADSVKGRFTISRDNAKNTVYIQMKSLKPEDTAVYYCAAKTIYYTRGIRHYYWGQVTQVTVSS”, with “high polyreactivity”; and “QVQLVESGGGLVQAGGSLRLSCAGSGINFHLYAMGWYRQAPGKERELVAAISWNGSSTYYADSVKGRFTISRDNAKNTVYLQMNSLKPEDTAVYYCAASYGYFEDYGYWGQGNQVTVSS”, with “low polyreactivity”; and “QVQLVESGGGLVQAGGSLRLSCAASGRTFVYNAMGWYRQAPGKERELVAAITSGGRTYYADSVKGRFTISRDNAKNTVYLQMNSLKPEDTAVYYCNAGVGARESDYWGQCTQVTVSS”, with “low polyreactivity”.
In the case of “QVQLVESGGGLVQAGGSLRLSCAASGFTFDYYTMGWYRQAPGKEREFVAAITWNGGTTNYADSVKGRCTISRDNAKNTVYLQMNSLKPEDTALYYCADTAYWYFSNDSGRSYDYWGQGTQVTVSS”, the “polyreactivity (PSR sort gate)” value is listed as “low polyreactivity”.
For the sequence “HVQLVESGGGLVQAGGSLRLSCAASGSTFGSYALGWYRQAPGKERELVADISSRGASTYNADSVKGRFTISRDNAKNTVYLQMNSLKPEDTAVSYCATDKLYGRTVRMDYWGQGTQVTVSS”, the “polyreactivity (PSR sort gate)” value is listed as “low polyreactivity”.
For the sequence “QVQLVESGGGLVQAGGSLRLSCAASGSIFRTNAMGWYRQAPGKEREYVATISSDSGNTYYADSVKGRFTISRDNAKNTVYLQMNSLKPEDTAVYYCARRKVRYWSYRAANYYWGQGTQVTVSS”, the “polyreactivity (PSR sort gate)” value was “low polyreactivity”.
To “QVQLVESGGGLVQAGGSLRLSCAASGSILGQNAMGWSRQAPGKEREWVAAIRSSGGSTYYADSVKGRFTISRDNAKNTVYLQMNSRNPEDTAVYYCADDYYTSADYVDYYYWGQGTQVTVSS” belongs “low polyreactivity”; to “QVQLVESGGGLVQAGGSLRLSCAASGRTFLYYTMGWYRQAPGKERELVAVISIEGGGTYADSVKGRFTISRDNAKNTVYLQMNSLKPEDTAVYYCAVDALSITYGYWGQGTQVNVSS”, “low polyreactivity”.
For “QVQLVESGGGLVQAGGSLRLSCAASGGTYRVKAMGWYRQAPGKEREFVAAISGSGSSTYYADSVKGRFTISRDNAKNTVYLQMNSLKPEDTAVYYCAARSCVGGDNDYWGQGTQVTVSS”, the “polyreactivity (PSR sort gate)” value is recorded as “low polyreactivity”.
For “QVQLVESGGGLVQAGGSLRLSCAASGRTFAQYTMGWYRQAPGKERELVAAISYRGSSTYYADSVKGRFTISRDNAKNTVYLQMNSLKPEDTAVYYCAVVYSIYTGGYDYWGQGTQVTVSS”, the “polyreactivity (PSR sort gate)” value is given as “high polyreactivity”.
Take “QVKLVESGGGLVQAGGRLRLSCAASGSIFLLYPMGWYRQAPGKERELVAAISSGGSTYADSVKGRFTISRDNAKNTVYLLLNSLKPADTAVYYGAKVGGWYDPYTYGYSEYGYWGNGTQVTVSS”: the “polyreactivity (PSR sort gate)” value is “low polyreactivity”.
Then “QVQLVESGGRLVQAGGSLRLSCAASGFIFKYYAMGWYRQAPGKEREFVAAITWSGSSTNYADSVKGRFTISRDNAKNTVYLQMNSLKPEDTAVYYCNADRKYYKYDYWGQGTQVTVSS”, with “high polyreactivity”.
